Reference: the supplement of paper PMC7125110
± gives the standard error. For part of these data: Variants at the floor of the assay were thinned out.

B1: glmS ribozyme (parent)
chain: AUAAAAGCGCCAGAACUACAGAAAUGUAGUUGACGAGGAGGAGGUUUAUCGAAUUUUCGGCGGAUGCCUCCAAA

Columns and labels:
Conditions in all cases: with glucosamine-6-phosphate
glucosamine-6-phosphate [1] = variants of: B1; test: kcat; higher = faster cleavage; RNA array
How it was run: (§1)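 Weighted Michaelis–Menten fits across concentrations supplied kcat and KM, based on kobs from one- or two-exponential decay fits to normalised per-tile medians. The data came from barcoded ribozyme variants transcribed in situ by E. coli RNA polymerase on sequenced MiSeq chips and tracked at 37 °C by a hybridised Cy3 probe. Glucosamine-6-phosphate (40 μM to 10 mM) in HEPES/KCl/Mg(OAc)2 buffer was flowed in.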

glucosamine-6-phosphate [2] = variants of: B1; test: self-cleavage kobs at 40 uM GlcN6P; higher = faster cleavage; RNA array
How it was run: as §1

glucosamine-6-phosphate [3] = variants of: B1; test: self-cleavage kobs at 160 uM GlcN6P; higher = faster cleavage; RNA array
How it was run: as §1

glucosamine-6-phosphate [4] = variants of: B1; test: self-cleavage kobs at 640 uM GlcN6P; higher = faster cleavage; RNA array
How it was run: as §1

glucosamine-6-phosphate [5] = variants of: B1; test: self-cleavage kobs at 2500 uM GlcN6P; higher = faster cleavage; RNA array
How it was run: as §1

glucosamine-6-phosphate [6] = variants of: B1; test: self-cleavage kobs at 10000 uM GlcN6P; higher = faster cleavage; RNA array
How it was run: as §1

glucosamine-6-phosphate [7] = variants of: B1; test: KM; higher = weaker cofactor use; RNA array
How it was run: as §1

Variant	kcat (glucosamine-6-phosphate [1]) [s⁻¹]	self-cleavage kobs at 40 uM GlcN6P (glucosamine-6-phosphate [2]) [s⁻¹]	self-cleavage kobs at 160 uM GlcN6P (glucosamine-6-phosphate [3]) [s⁻¹]	self-cleavage kobs at 640 uM GlcN6P (glucosamine-6-phosphate [4]) [s⁻¹]	self-cleavage kobs at 2500 uM GlcN6P (glucosamine-6-phosphate [5]) [s⁻¹]	self-cleavage kobs at 10000 uM GlcN6P (glucosamine-6-phosphate [6]) [s⁻¹]	KM (glucosamine-6-phosphate [7]) [µM]
A15G U56C	0.0034 ± 0.0013	5.65e-05 ± 1.3e-05	0.00017 ± 2.9e-05	0.000805 ± 0.00025	0.00116 ± 0.00021	0.00354 ± 0.0006	–
G29C U47C	0.000131 ± 7.3e-06	–	–	3.72e-05 ± 1.8e-05	7.73e-05 ± 1.5e-05	0.000112 ± 2.7e-05	1730 ± 250
A14U U31C C34G A42G U47A G51A C71A	< 1e-05	–	–	–	–	< 1e-05	–
C16G A64C	2.1e-05 ± 1.7e-06	–	–	–	–	–	9060 ± 1500
G29U C67A U69A	7.55e-05 ± 1.2e-05	–	–	5.78e-05 ± 2.8e-05	0.000106 ± 2.6e-05	6.88e-05 ± 1.3e-05	–
A15C C68U	0.00105 ± 0.00025	–	6.98e-05 ± 8.8e-06	0.000191 ± 2.7e-05	0.000847 ± 0.00011	0.000796 ± 8.8e-05	2390 ± 860
C16G C71A	0.000641 ± 0.00015	–	–	0.000111 ± 1.9e-05	0.000462 ± 0.00011	0.000465 ± 8.7e-05	2900 ± 1000
C16G C71G	0.000131 ± 1.2e-05	–	6.73e-05 ± 2.1e-05	8e-05 ± 1.3e-05	0.000114 ± 1.3e-05	0.00014 ± 1.8e-05	303 ± 130
A15U G66U	0.000139 ± 1.2e-05	–	–	6.31e-05 ± 9.8e-06	0.000153 ± 4.4e-05	0.000127 ± 1.5e-05	717 ± 180
A14U A53U	0.00789 ± 0.00051	0.000127 ± 1.2e-05	0.000453 ± 9.2e-05	0.00157 ± 0.00019	0.00355 ± 0.00044	0.00654 ± 0.00056	2540 ± 240
G29C U69C	0.000103 ± 2.8e-05	–	8.98e-05 ± 2.2e-05	0.000129 ± 2.2e-05	0.000164 ± 3e-05	6.68e-05 ± 1.6e-05	–
C16A U69C	0.00012 ± 3.2e-05	–	–	9.93e-05 ± 2.2e-05	7.87e-05 ± 2.2e-05	0.000168 ± 4e-05	–
C16A U69A	3.39e-05 ± 9e-06	–	–	–	4.42e-05 ± 1.3e-05	–	–
C16U U30A	0.003 ± 0.00083	7.15e-05 ± 7.9e-06	0.000131 ± 2.6e-05	0.000648 ± 0.00011	0.00171 ± 0.00029	0.00242 ± 0.00027	2310 ± 910
C16U U30C	7.72e-05 ± 8.6e-06	< 1e-05	3.52e-05 ± 1.7e-05	6.63e-05 ± 2.2e-05	5.88e-05 ± 8.5e-06	8.45e-05 ± 9.1e-06	–
